Assay results: PMC4975591

Target: T1, Full-length cysteine string protein CSP(1-198), Q9H3Z4
T1 chain: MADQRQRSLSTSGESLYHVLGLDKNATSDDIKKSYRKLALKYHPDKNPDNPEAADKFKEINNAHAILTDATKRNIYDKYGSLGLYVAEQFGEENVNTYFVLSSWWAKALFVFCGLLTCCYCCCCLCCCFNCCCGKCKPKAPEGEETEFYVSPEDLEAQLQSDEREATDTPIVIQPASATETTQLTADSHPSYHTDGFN
Assay: AUC; sedimentation velocity, 50,000 rpm, 20.1°C, 9 hr, absorbance at 279 nm; self-association of purified recombinant protein
Conditions: remark: other sources report otherwise

B1: Full-length cysteine string protein CSP(1-198), Q9H3Z4 1-198 (natural protein)
chain: MADQRQRSLSTSGESLYHVLGLDKNATSDDIKKSYRKLALKYHPDKNPDNPEAADKFKEINNAHAILTDATKRNIYDKYGSLGLYVAEQFGEENVNTYFVLSSWWAKALFVFCGLLTCCYCCCCLCCCFNCCCGKCKPKAPEGEETEFYVSPEDLEAQLQSDEREATDTPIVIQPASATETTQLTADSHPSYHTDGFN
stoichiometry N: > 10 subunits
